Measurements: article PMC4642984

Experiments:
[1] = biological target: ELucC-BMAL1 deletion mutant Bd5 (mouse) (UniProt Q9WTL8); test: split reporter (BiFC, NanoBiT); Split Luc complementation in living Cos7 cells transfected with ELucN-CK2β and ELucC-BMAL1 (WT or mutant) together with pcDNA, Myc-HA-CRY1, Myc-CRY2 or FLAG-CRY1 (WT or Cd1-4); real-time bioluminescence, averaged peak values
[2] = biological target: ELucC-BMAL1 deletion mutant Bd4 (mouse) (UniProt Q9WTL8); test: as above
ELucC-BMAL1 deletion mutant Bd4 (mouse), sequence (Q9WTL8 other isoform, or with tags, fused parts or gaps, stated change not applied): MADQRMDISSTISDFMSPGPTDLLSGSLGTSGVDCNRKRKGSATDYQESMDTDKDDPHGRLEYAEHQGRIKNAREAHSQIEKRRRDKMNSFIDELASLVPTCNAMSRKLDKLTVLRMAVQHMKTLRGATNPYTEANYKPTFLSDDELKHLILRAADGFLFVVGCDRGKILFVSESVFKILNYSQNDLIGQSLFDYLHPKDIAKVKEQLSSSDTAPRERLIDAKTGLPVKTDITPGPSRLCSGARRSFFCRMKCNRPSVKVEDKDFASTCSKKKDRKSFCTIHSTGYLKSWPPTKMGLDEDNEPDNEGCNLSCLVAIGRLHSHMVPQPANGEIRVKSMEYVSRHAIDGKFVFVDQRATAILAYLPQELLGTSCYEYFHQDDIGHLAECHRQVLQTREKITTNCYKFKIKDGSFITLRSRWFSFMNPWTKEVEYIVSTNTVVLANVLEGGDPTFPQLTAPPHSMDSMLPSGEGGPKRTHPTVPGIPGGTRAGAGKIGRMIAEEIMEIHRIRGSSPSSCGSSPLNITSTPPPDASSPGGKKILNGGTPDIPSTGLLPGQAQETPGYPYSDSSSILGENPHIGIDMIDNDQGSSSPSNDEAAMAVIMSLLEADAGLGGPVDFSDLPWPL

ELucN-CK2β, sequence (P67870 whole entry): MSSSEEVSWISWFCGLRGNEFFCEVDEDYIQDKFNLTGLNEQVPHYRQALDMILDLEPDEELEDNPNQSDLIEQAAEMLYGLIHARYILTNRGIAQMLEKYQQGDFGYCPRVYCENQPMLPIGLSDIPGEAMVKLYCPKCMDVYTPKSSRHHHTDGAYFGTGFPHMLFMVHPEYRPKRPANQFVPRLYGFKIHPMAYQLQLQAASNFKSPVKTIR
ELucC-BMAL1 deletion mutant Bd5 (mouse), sequence (Q9WTL8 other isoform, or with tags, fused parts or gaps, stated change not applied): as the sequence (Q9WTL8 other isoform, or with tags, fused parts or gaps, stated change not applied) above

ELucN-CK2β (from UniProt P67870 1-215) (natural protein)
Split Luc bioluminescence, percent of BMAL1-WT [1]: 30% | Split Luc bioluminescence, fold of BMAL1-WT [2]: 2 fold
